Where a chain is given by its changes, count along the chain named. Numbers in names are those of the source.
B1: R170A/R220A/Y227F/E449R mutant β-glucosidase (enzyme)
chain: AKFPKNFMFGYSWSGFQFEMGLPGSEVESDWWVWVHDKENIASGLVSGDLPENGPAYWHLYKQDHDIAEKLGMDCIRGGIEWARIFPKPTFDVKVDVEKDEEGNIISVDVPESTIKELEKIANMEALEHYRKIYSDWKERGKTFILNLYHWPLPLWIHDPIAVRKLGPDAAPAGWLDEKTVVEFVKFAAFVAYHLDDLVDMWSTMNEPNVVYNQGYINLASGFPPGFLSFEAAEKAKFNLIQAHIGAYDAIKEYSEKSVGVIYAFAWHDPLAEEYKDEVEEIRKKDYEFVTILHSKGKLDWIGVNYYSRLVYGAKDGHLVPLPGYGFMSERGGFAKSGRPASDFGWEMYPEGLENLLKYLNNAYELPMIITENGMADAADRYRPHYLVSHLKAVYNAMKEGADVRGYLHWSLTDNYEWAQGFRMRFGLVYVDFETKKRYLRPSALVFRRIATQKEIPEELAHLADLKFVTRK
B2: R170A/R220A mutant β-glucosidase (enzyme)
chain: B1 chain with F227Y, R449E
notes: start methionine not included; also called A170A/R220A mutant [sic]
B3: R170A/R220A/Y227F mutant β-glucosidase (enzyme)
chain: B1 chain with R449E
notes: start methionine not included; Homodimer in crystal and by gel filtration; also called mutant (R170A/R220A/Y227F)
B4: R170A mutant β-glucosidase (enzyme)
chain: B1 chain with A220R, F227Y, R449E
notes: start methionine not included in the entry
B5: R170A/R220A/Y227F/R448E mutant β-glucosidase (enzyme)
chain: B1 chain with R448E, R449E
notes: start methionine not included; Estimated to be monomeric
B6: R170A/R220A/Y227F/E459G mutant β-glucosidase (enzyme)
chain: B1 chain with R449E, E459G
notes: as for B5
B7: parent β-glucosidase (Pyrococcus furiosus) (enzyme)
chain: B1 chain with A170R, A220R, F227Y, R449E
notes: Recombinant, expressed in E. coli; Homotetramer in crystal and in solution; also called wild-type; parent glucosidase
B8: R170A/R220A/Y227F/R448G mutant β-glucosidase (enzyme)
chain: B1 chain with R448G, R449E
notes: as for B5

Key:
[1] = biological target: R170A/R220A/Y227F/E449R mutant β-glucosidase (Pyrococcus furiosus); assay: gel filtration (Superdex 200), oligomeric state
[2] = biological target: the molecule itself; assay: blue-native PAGE, self-association
Description: Whether the parent β-glucosidase and our β-glucosidases, R170A mutant, R170A/R220A mutant, and R170A/R220A/Y227F mutant, form stable tetramers or not was investigated by blue-native PAGE.
In the blue-native PAGE, 3-12% Native-PAGE Bis-Tris Gel (Invitrogen Corporation) was used. Electrophoresis samples were prepared by dissolving 1 μg of each of the parent β-glucosidase, R170A mutant, R170A/R220A mutant, and R170A/R220A/Y227F mutant in a sample buffer (50 mM imidazole (pH 7.0), 50 mM NaCl, 5 mM 6-aminohexanoic acid, 0.5% Coomassie G250, and 0.5% DDM). NativeMark protein standard (Invitrogen Corporation) was used as molecular weight markers. In the electrophoresis, 50 mM Tricine, 7.5 mM imidazole (pH 7.0), and Coomassie G250 were added to […], whereas 25 mM imidazole (pH 7.0) was added to the cathode side. The electrophoresis was performed at a constant voltage of 150 V for 100 minutes. After fixation of bands, G-250 was decolorized.

[3] = biological target: the molecule itself; assay: gel filtration (Superdex 200), oligomeric state
Description: (§1) The molecular weights of the parent glucosidase and the mutants were determined by gel filtration using HiLood 26/60 Suuperdex 200 as the column, a 50 mM tris-hydrochloride (pH 8) and 150 mM sodium chloride as the buffer. The enzymes prepared in Example 2, Reference Example 1, and Example 9 were each added to the column and eluted with the buffer at a flow rate of 2 mL/min. The enzyme was detected by measuring absorbance at 280 nm. Ovoalbumin (44 kDa), conalbumin (75 kDa), aldolase (158 kDa), and ferritin (440 kDa) were used as molecular weight markers, and a calibration curve was drawn based on the elution time of each enzyme component. The molecular weights measured by gel filtration (observed molecular weights: kDa) and molecular weights estimated from the amino acid primary structures (estimated molecular weights: kDa) are summarized in Table 8.

[4] = biological target: the molecule itself; assay: gel filtration (Superdex 200), self-association
Description: as §1

Row | Binder | Observed molecular weight (kDa) [3] [kDa] | binding result [4] | further results
1 | B1 | – | – | Observed molecular weight (kDa) [1]: 92 kDa
2 | B2 | – | – | binding result [2]: binds
3 | B3 | 129 | – | –
4 | B4 | – | – | binding result [2]: binds
5 | B5 | 70 | no binding | –
6 | B6 | 50 | no binding | –
7 | B7 | 237 | – | –
8 | B8 | 63 | no binding | –
